Test [1] relates to OV90 cells. As to the kind of experiment: MTT cell viability assay, antibody and chemotherapeutic agent treatment. In kind it is cell-based, human. The settings on record: 72 to 144 hours, S3F 0.033 nM-500 nM; for cell viability (MTT assay): STn+CD133+ OV90 and CSC sub-fractions, normalized to untreated control. The procedure: STn+CD133+OV90 and CSC sub-fractions were treated with unconjugated anti-STn antibody S3F [0.033 nM-500 nM] or with different concentrations of chemotherapeutic agents paclitaxel and/or carboplatin. OV90 cells were cultured for 72 to 144 hours with the indicated concentrations and cell viability was analyzed by MTT assay (FIG. 2). All values were normalized to the untreated control.

Test [2] has as its system CSC tumors. As to the kind of experiment: Anti-CSC activity in vivo, tumors in NOD/SCID mice. The procedure: The growth conditions of CSC subfractions in NOD/SCID mice is established and analyzed. Anti-STn antibodies are administered to mice as conjugates with chemotherapy and treated mice are tested for toxicity and efficacy through mouse observations and weights.
An equivalent amount of serially-diluted positive or negative subfraction cells (i.e., 1×10^5, 1×10^4, and 1×10^3/mouse; 2-8 mice/group) are injected subcutaneously (s.c.) into NOD/SCID mice, to compare their potential to generate tumors. Following injection of tumor cells, the mice are monitored daily for evidence of tumor formation and general health.
For treatment, tumors may be generated in mice from up to four sources: 1) primary ovarian tumors; 2) xenograft tumors previously established in NOD/SCID mice; 3) cryopreserved xenograft tumor tissue; or 4) human ovarian cancer cell lines or isolated cell line subfractions based on CD133/STn expression. For each tumor type, once a sufficient number of mice have tumors ranging from 200-300 mm^3 in volume, the mice are randomized into 4 groups (n=8-14 mice/group) such that the mean group tumor volumes are essentially equivalent. […]
Tumors are then measured twice weekly with calipers [tumor volume=(Lmm×Wmm×[…])/2]. […]

Test [3] relates to STn in ovarian cancer tissue. The experiment in a line: Immunohistochemical staining of ovarian cancer tissue sections. It is filed as binding. The settings on record: S3F as primary antibody; peroxidase-based secondary detection; compared to normal IgG and no primary antibody. The text has this: Tissue sections from ovarian cancer tissue were subjected to immunohistochemical staining to identify cells expressing STn using S3F antibody as a primary antibody. Bound antibody was detected using a peroxidase-based secondary detection system.

`N.N.O=C([O-])C1(C(=O)[O-])CCC1.[Pt+2]` [carboplatin, reference compound]: the “cell viability (MTT assay)” value in test [1] is reported as “Cell viability was reduced”.

Regarding `CC(=O)O[C@H]1C(=O)[C@@]2(C)[C@H]([C@H](OC(=O)c3ccccc3)[C@]3(O)C[C@H](OC(=O)[C@H](O)[C@@H](NC(=O)c4ccccc4)c4ccccc4)C(C)=C1C3(C)C)[C@]1(OC(C)=O)CO[C@@H]1C[C@@H]2O` [paclitaxel, reference compound], the “cell viability (MTT assay)” value in test [1] is “Cell viability was reduced”.

B1: S3F: anti-STn IgG2a antibody combining 3F1 variable domains with IgG2a constant domains; heavy chain SEQ ID NO: 5, light chain SEQ ID NO: 6 (antibody)
heavy: QVQLQQSDAELVKPGASVKISCKASGYTFTDHAIHWVKQKPEQGLDWIGYISPGNGDIKYNEKFKDKVTLTADKSSSTACMHLNSLTSEDSAVYFCKRSLLALDYWGQGTTLTVSSAKTTAPSVYPLAPVCGDTTGSSVTLGCLVKGYFPEPVTLTWNSGSLSSGVHTFPAVLQSDLYTLSSSVTVTSSTWPSQSITCNVAHPASSTKVDKKIEPRGPTIKPCPPCKCPAPNLLGGPSVFIFPPKIKDVLMISLSPIVTCVVVDVSEDDPDVQISWFVNNVEVHTAQTQTHREDYNSTLRVVSALPIQHQDWMSGKEFKCKVNNKDLPAPIERTISKPKGSVRAPQVYVLPPPEEEMTKKQVTLTCMVTDFMPEDIYVEWTNNGKTELNYKNTEPVLDSDGSYFMYSKLRVEKKNWVERNSYSCSVVHEGLHNHHTTKSFSRTPGK
light: DIVMTQSHKFMSTSVGDRVSITCKASQDVGTNIAWYQQKPGRSPKVLIYSASTRHTGVPDRFTGSGSGTDFTLTISNVQSEDLTDYFCQQYSSFPLTFGVGTKLELKRADAAPTVSIFPPSSEQLTSGGASVVCFLNNFYPKDINVKWKIDGSERQNGVLNSWTDQDSKDSTYSMSSTLTLTKDEYERHNSYTCEATHKTSTSPIVKSFNRNEC
As to B1, the “efficacy in combination with standard chemotherapy agents used for ovarian cancer” value in test [2] is “increases the efficacy of the antibody”. In test [2] (i.p. once weekly), the “growth of CSC tumors” value is on record as “capable of delaying the growth of or eradicating CSC tumors”. Besides, in test [1] (OV90 cells), the “dose dependence of effect on cell viability” value was “most effective at higher doses tested”. Besides, the “cell viability (MTT assay)” value in test [1] is “Cell viability was reduced”. Moreover, the immunohistochemical staining result in test [3] was “Numerous cells showed positive staining”.

(Values after patent US20240343826A1, “Compositions and Methods for Targeting Cancer Stem Cells” (Seagen Inc., priority 2015, published 2024).)
